US20100285131A1

Biological target: β-Klotho overexpressed in recombinant human 293T kidney cells
Assay: cell-based or functional assay

Row | EC50 (nM), ELK-luciferase [nM] | Efficacy, ELK-luciferase [%] | Substance
1 | 2.66 | 73.5 | hFc-(L15)-hFGF21(L98R, P171G, S181A) (Fc fusion)
2 | 4310 | 99.7 | hFc-(L15)-hFGF21(L98R, P171G, GGGGG182-6) (Fc fusion)
3 | 7.8 | 77.4 | hFc-(L15)-hFGF21(L98R, P171G, 1-179) (Fc fusion)
4 | 3.46 | 72.6 | hFc-(L15)-hFGF21(L98R, P171G, S181L) (Fc fusion)
5 | 834 | 83.1 | MKEDD-hFGF21-(L15)-hFc (Fc fusion)

The remaining lines, values behind:

Row | Substance | EC50 (nM), ELK-luciferase [nM] | Efficacy, ELK-luciferase [%]
6 | hFc-(L15)-hFGF21(L98R, P171G, Y179G) (Fc fusion) | 61 | 82.6
7 | hFc-(L15)-hFGF21(L98R, P171G, A180P) (Fc fusion) | 617 | 77.1
8 | hFc-(L15)-hFGF21(L98R, P171G, S181T) (Fc fusion) | 3.07 | 77.6
9 | hFc-(L15)-hFGF21(L98R, P171G, S181P) (Fc fusion) | 33.8 | 79.5
10 | hFc-(L15)-hFGF21(L98R, P171G, Y179P) (Fc fusion) | 428 | 44.4
11 | hFc-(L15)-hFGF21(L98R, P171G, S181K) (Fc fusion) | 130 | 87.9
12 | hFc-(L15)-hFGF21(L98R, P171G, S181P, P182) (Fc fusion) | 272 | 69.9
13 | hFc-(L15)-hFGF21(L98R, P171G, S181G) (Fc fusion) | 3.43 | 77.3
14 | hFc-(L15)-hFGF21(1-178, L98R, P171G) (Fc fusion) | 167 | 63.9
